Assay results taken from patent US20040137579A1, “Protein complexes having factor VIII:C activity and production thereof” (Chiron Corporation, published 2004).
Blank lines part the entries; values can stand above or below the molecule they belong to.

Assays:
[1] = biological target: Factor VIII:C Mr 80 K polypeptide (FVIII-LC) encoded by pSVF8-80 (human) (UniProt P00451)
[2] = biological target: Factor VIII:C Mr 80 K polypeptide (FVIII-LC) encoded by pSVF8-80 (human) (UniProt P00451); remark: listed apart in the source
[3] = biological target: Factor VIII:C Mr 80 K polypeptide (FVIII-LC) encoded by pSVF8-80 (human) (UniProt P00451); remark: listed apart in the source
[4] = biological target: Factor VIII:C Mr 80 K polypeptide (FVIII-LC) encoded by pSVF8-80 (human) (UniProt P00451); remark: listed apart in the source
[5] = biological target: Factor VIII:C Mr 80 K polypeptide (FVIII-LC) encoded by pSVF8-80 (human) (UniProt P00451); remark: listed apart in the source
[6] = biological target: Factor VIII:C Mr 80 K polypeptide (FVIII-LC) encoded by pSVF8-80 (human) (UniProt P00451); remark: listed apart in the source
[7] = biological target: T1, Factor VIII:C 80 K light chain encoded by pSVF8-80A (human, UniProt P00451); experiment: cell-based or functional assay
T1 chain: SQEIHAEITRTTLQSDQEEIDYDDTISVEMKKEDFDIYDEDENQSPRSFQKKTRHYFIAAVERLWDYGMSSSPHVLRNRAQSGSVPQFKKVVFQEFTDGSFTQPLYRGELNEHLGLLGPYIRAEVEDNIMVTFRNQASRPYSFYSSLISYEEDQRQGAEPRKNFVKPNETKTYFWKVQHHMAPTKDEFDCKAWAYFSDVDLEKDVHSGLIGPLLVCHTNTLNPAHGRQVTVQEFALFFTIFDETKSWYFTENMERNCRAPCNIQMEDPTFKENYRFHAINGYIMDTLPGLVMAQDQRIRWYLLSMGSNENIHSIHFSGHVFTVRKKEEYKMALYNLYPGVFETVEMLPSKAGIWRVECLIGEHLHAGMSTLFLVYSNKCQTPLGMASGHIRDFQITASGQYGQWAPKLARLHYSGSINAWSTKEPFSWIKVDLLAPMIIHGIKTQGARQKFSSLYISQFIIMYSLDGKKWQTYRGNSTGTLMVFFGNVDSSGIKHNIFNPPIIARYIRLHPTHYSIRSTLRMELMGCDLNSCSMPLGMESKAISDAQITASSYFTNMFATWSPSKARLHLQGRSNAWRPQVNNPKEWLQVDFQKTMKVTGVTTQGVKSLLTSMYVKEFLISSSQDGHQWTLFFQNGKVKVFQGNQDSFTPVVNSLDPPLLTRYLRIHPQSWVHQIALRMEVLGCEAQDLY

[8] = biological target: T2, Factor VIII:C 80 K light chain encoded by pSVF8-80KG (human, UniProt P00451); experiment: cell-based or functional assay
T2 chain: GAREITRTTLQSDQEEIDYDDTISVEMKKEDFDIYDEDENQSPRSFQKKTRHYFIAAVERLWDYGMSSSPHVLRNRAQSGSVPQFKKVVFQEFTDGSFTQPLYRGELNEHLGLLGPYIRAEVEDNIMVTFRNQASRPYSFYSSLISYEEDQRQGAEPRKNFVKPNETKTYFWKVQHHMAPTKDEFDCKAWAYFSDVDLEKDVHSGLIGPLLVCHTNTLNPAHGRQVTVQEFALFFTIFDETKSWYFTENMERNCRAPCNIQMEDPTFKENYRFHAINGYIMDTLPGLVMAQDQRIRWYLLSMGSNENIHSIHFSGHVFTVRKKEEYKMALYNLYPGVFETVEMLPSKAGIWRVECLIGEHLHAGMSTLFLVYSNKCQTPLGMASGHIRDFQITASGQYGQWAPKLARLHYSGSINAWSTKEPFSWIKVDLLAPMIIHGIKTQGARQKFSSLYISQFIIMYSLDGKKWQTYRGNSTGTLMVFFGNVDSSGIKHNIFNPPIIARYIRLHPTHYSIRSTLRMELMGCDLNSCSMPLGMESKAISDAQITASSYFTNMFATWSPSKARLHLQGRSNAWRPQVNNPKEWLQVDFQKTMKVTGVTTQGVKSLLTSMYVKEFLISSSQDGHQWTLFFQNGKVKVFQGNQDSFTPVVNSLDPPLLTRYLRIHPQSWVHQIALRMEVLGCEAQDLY

[9] = biological target: Factor VIII:C light chain encoded by pSVF8-80AT (alpha1-antitrypsin signal peptide) (human, UniProt P00451); experiment: cell-based or functional assay
[10] = biological target: T3, Factor VIII:C 80 K light chain encoded by pSVF8-80S (human, UniProt P00451); experiment: cell-based or functional assay
T3 chain: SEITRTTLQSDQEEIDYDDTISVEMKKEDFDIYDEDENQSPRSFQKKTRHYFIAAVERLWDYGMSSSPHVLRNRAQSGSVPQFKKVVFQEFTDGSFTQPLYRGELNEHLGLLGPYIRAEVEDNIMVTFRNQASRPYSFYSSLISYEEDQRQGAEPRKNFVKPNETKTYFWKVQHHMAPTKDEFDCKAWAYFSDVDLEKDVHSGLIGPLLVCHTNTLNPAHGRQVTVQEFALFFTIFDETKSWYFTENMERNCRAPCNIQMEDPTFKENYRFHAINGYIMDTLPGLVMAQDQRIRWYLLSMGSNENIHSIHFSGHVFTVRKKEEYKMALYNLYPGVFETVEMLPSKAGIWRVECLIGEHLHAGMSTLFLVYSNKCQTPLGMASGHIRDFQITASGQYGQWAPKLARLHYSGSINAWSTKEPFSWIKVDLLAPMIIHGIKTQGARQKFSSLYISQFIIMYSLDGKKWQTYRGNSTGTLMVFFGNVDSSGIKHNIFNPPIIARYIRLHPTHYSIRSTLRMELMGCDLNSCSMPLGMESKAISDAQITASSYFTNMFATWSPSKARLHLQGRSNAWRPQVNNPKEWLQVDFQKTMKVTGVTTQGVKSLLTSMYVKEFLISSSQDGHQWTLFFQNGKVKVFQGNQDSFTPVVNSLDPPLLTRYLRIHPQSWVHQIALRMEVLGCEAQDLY

Molecule: Factor VIII:C 92 K heavy chain encoded by pCMVF8-92/6x (from UniProt P00451)
COA (COATEST) mU/mL, cotransfected COS7 cells [1]: 87 mU/mL

Molecule: Factor VIII:C Mr 92 K heavy chain encoded by pSVF8-92E (from UniProt P00451)
ratio of RIA to COATEST activity [2]: 7.2 | COATEST (mU/mL) (stable CHO clone 10C2-D2, 0.05 uM methotrexate) [3]: 496 mU/mL | Factor VIII:C activity of medium of COS7 cells cotransfected with pSVF8-80 [4]: 1.65 fold

Molecule: Factor VIII:C Mr 92 K polypeptide (FVIII-HC) encoded by pSVF8-92 (from UniProt P00451)
COATEST Activity mU/mL (medium of cotransfected COS7 cells) [6]: 20.4 mU/mL | COATEST Activity mU/mL (supernatants of separate transfectants mixed) [6]: < 0.1 mU/mL | Coagulation Activity mU/mL (one-stage assay, medium of cotransfected COS7 cells) [6]: 22.5 mU/mL | Coagulation Activity mU/mL (supernatants of separate transfectants mixed) [6]: < 0.9 mU/mL

Continued, values first:

mU COATEST/mL (stable CHO cell line 11-D6) [5]: 43 mU/mL | COA (COATEST) mU/mL, cotransfected COS7 cells [1]: 46 mU/mL
Molecule: Factor VIII:C 92 K heavy chain encoded by pSVF8-92C (from UniProt P00451)

ratio of RIA to COATEST activity [2]: 1.8
Molecule: 1416 amino acid Factor VIII:C heavy chain encoded by pSVF8-170 (from UniProt P00451)

ratio of RIA to COATEST activity [2]: 1.8
Molecule: 1323 amino acid Factor VIII:C heavy chain encoded by pSVF8-160 (from UniProt P00451)

Percent Control Activity (COATEST after in vitro combination of purified chains) [7]: 92 percent of control activity | Percent Control Activity (COATEST after in vitro combination of purified chains) [8]: 233 percent of control activity | Percent Control Activity (COATEST after in vitro combination of purified chains) [9]: 86 percent of control activity | Percent Control Activity (COATEST after in vitro combination of purified chains) [10]: 51 percent of control activity
B1: purified recombinant FVIII:C heavy chains (from full-length human FVIII:C) (other)
chain: ATRRYYLGAVELSWDYMQSDLGELPVDARFPPRVPKSFPFNTSVVYKKTLFVEFTDHLFNIAKPRPPWMGLLGPTIQAEVYDTVVITLKNMASHPVSLHAVGVSYWKASEGAEYDDQTSQREKEDDKVFPGGSHTYVWQVLKENGPMASDPLCLTYSYLSHVDLVKDLNSGLIGALLVCREGSLAKEKTQTLHKFILLFAVFDEGKSWHSETKNSLMQDRDAASARAWPKMHTVNGYVNRSLPGLIGCHRKSVYWHVIGMGTTPEVHSIFLEGHTFLVRNHRQASLEISPITFLTAQTLLMDLGQFLLFCHISSHQHDGMEAYVKVDSCPEEPQLRMKNNEEAEDYDDDLTDSEMDVVRFDDDNSPSFIQIRSVAKKHPKTWVHYIAAEEEDWDYAPLVLAPDDRSYKSQYLNNGPQRIGRKYKKVRFMAYTDETFKTREAIQHESGILGPLLYGEVGDTLLIIFKNQASRPYNIYPHGITDVRPLYSRRLPKGVKHLKDFPILPGEIFKYKWTVTVEDGPTKSDPRCLTRYYSSFVNMERDLASGLIGPLLICYKESVDQRGNQIMSDKRNVILFSVFDENRSWYLTENIQRFLPNPAGVQLEDPEFQASNIMHSINGYVFDSLQLSVCLHEVAYWYILSIGAQTDFLSVFFSGYTFKHKMVYEDTLTLFPFSGETVFMSMENPGLWILGCHNSDFRNRGMTALLKVSSCDKNTGDYYEDSYEDISAYLLSKNNAIEPR
